# From the DeepSol protein solubility set
# Test: soluble on expression in E. coli; label from the status in PepcDB or PDB records
row,Sequence,soluble on expression in E. coli
1,MSDKNIQDRAAGAIMGAFIGDALGLGPHWYYDLSELRRDYDDWITGYTDPKPDRYHAGLKAGQLSQSGFILKLMVRSLVGCGGYDTEDFCHRMDEELFPLLDGTPVNGPGGYTSQSIRETWRRRVQQMLPWGQTGGHADTTEAVERTLAIAVRYAYQPEQLAAAVSANTTLTQTDETIVSMTVAYGAVLGLLIQGHALDTGLSGKLMDLVKSGALPFHAVTGDDLQPPRPGDPDPPRAGRFASPDALLTPSYMAAAAVDPEIRIEPAWKVSIVYGMPCAIYHQLPAAYYLAARFRDDFKSAVLHAVNGGGQNQARAMLTGALAGAQTGLSGIPQYLLDGLDNSAVLGKLAVELAASVNPIMAGDPNSLEHHHHHH,not soluble
2,MSDLTKLDWNHIRAFLKTAETGSLSAAARRLDLTQPTLSRQVAALEQDLGVMLFERIGRTLVLTDAGADLLEHTRAMGAAADRVALAASGQAQSIEGRVRITASDVMSAYVLPEALRRIRAQAPRLEIEVIAANDIRDLMRREADIAIRHVRPEQPDLIARLVREATAHFYAASGYLDRRGRPVTKDDLATHDFIAFGDVTEMLGHLTPLGLPLTRANFRLGSQSGVVAWDYVRQGFGIAPMDDGVAAATPGVERVLPQMEPLLFPVWLTAHRELHTSRRIRLVFDILAEYLTG,not soluble
3,MSDPSAKPLQEHILIILDDAGRREVLLTETFYTIGRSPRADIRIKSQFVSRIHAVLVRKSSDDVQAAYRIIDGDEDGQSSVNGLMINGKKVQEHIIQTGDEIVMGPQVSVRYEYRRRDQFGTMLEHHHHHH,soluble
4,MSDRATTTASLTFESLYGTHHGWLKSWLTRKLQSAFDADDIAQDTFLRVMVSETLSTIRDPRSFLCTIAKRVMVDLFRRNALEKAYLEMLALMPEGGAPSPEERESQLETLQLLDSMLDGLNGKTREAFLLSQLDGLTYSEIAHKLGVSISSVKKYVAKAVEHCLLFRLEYGL,soluble
5,MSDRHMSSIFPECDHLKQIYDKCFTEFFQKFITPNYRHQYAVNPCERLHDVYKRCVEERLATQRPFEIDLDEIRKEYLNTDDDKLKDRQNNQKTNSENKCSSS,not soluble
6,MSDSQINSRTTIDEYLSRADWRVNANANQDYSLGGMILNAAGKVTANYWLDQVFSPAASAAHREGSIHIHDLDMLSGYCAGWSLRQLLEEGFGGVPGTISSRPPKHFSSACGQIVNFLGTLQNEWAGAQAFSSFDTYMAPFVRLDNLSYDEIVQDMQEFIFNLNVPSRWGTQTPFTNLTFDWTCPADLKDSVPFIGEEPVDFTYGELQEEMDLINRAFIQVMSAGDADGRPFTFPIPTYNITKDFDWDSPNTEALFTMTAKYGLPYFQNFINSDLDPGMIRSMCCRLQLDLRELLKRGNGLFGSAELTGSIGVVTLNCARLGYLYAGDEQALLGAVDELIELGIDTLERRRDFVATHMRQGLYPYSARWLPSLDNHFSTIGVNGCNEMIRNFTHDAYNLTDPQGHAQVARLLDHINARLVQAQERTGHLFNLEATPAEGTTYRLAKEDLKRYPDMLHAGTPEEPYYTNSSQLPVSHTPDPFEALALQEDLQSKYTGGTVLHLYMGAAMSDGKACAALVRRALTNFHLPYITITPTFSICPDHGYISGEHPECPQCGATTEMWTRVMGYFRPVQSFNTGKKGEFHERTYFAEALI,not soluble
7,MSDTANAAVEIGEEALEQKLEELSVQDKTTPSNSEEKMRKRRLPTAERIRLWEEEQKSKTAITTGLQGKVKWYSVLRRYGFISRNDGEKDIFVHQTAIAKSATEKFYLRTLGDDEEVLFDLVEGKNGPEAANVTGPNGDNVIGSRYRHKLLSRFRKNRKPRASVDGEESQSTDAKPQEMSADAEKKKPRKQRKNRNRKSKAQQKGAGDAADSSAVTESSESASDVASPDSKSCSKIITEEAGLSKVDRCDSALGEAGLGAQPIDAQI,soluble
8,MSDVAETVVAQEPEVVEPVEEKPTETGSDDVVVIDEKTSEQNGEKTEETQAEATEEKNETEAEEADKDKAVENGEAKDTNGNDRKRVSSAHEEAPVADAEEDAPLTKKSKVEDEVDVAASGDAPAVAAE,soluble
9,MSDVPDDANAGCPGTGSAGAGKASGCAGCPNQGSCATGQGPPPDADVPKIQDRFSRIKHKILILSGKGGVGKSTLTSNLARALASDPSKQVAILDVDICGPSQPRMMGVEDEEVHNSADGWTPVGIQPNLTLMSIAFLLGDKNDAVIWRGARKNGMIKQFLKDVDWGEVDYLLIDTPPGTSDEHISLVQFLLQAGPLDGALIVSTPQEVSLLDVRKEVSFCVKTKVPILGVVENMARFVCPNCAHTTLLFPTSTGGAEQMCKDSNLELLAQLPLEPALAKALDNGEDFFETNPDSTLAKSFLDLAEKVKAKLV,not soluble
10,MSDVSLKLSAKDIYEKDFEKTMARGYRREEVDAFLDDIIADYQKMADMNNEVVKLSEENHKLKKELEELRLRVATSRPQDNKSFSSNNTTTNTSSNNVDILKRISNLEKAVFGK,not soluble
11,MSEAKWLSLLGLAARARQLLTGEEQVVKAVQNGQVTLVILSSDAGIHTKKKLLDKCGSYQIPVKVVGNRQMLGRAIGKHERVVIGVKDAGFSRKLAALIDE,soluble
12,MSEEVWNGNQGILSVYVSKARDLPNLNKLDKQNVMLRLRIAHMTRASNTLHRAGQNPVFHYLEKFDITPEIKPLMYVEVYCDRRKKSPLPIGRCEIDLLNAIRADPKEGYCTWYELKRSGDEFAGTIFIELTFTPKVPRLNRDDLNKEMDRLDSSMAMRPIPPLPTESEYDYVHGSTMRQITPQCVSTSHEDKDEGQPYRNGNVFSMSSKSDTAVLANSNDPIILPPTFSASMGTTSTLETNDTAISNTSNTKFHFANLRKLKEKINIFKNPDSSTNNCQNESNKVDIEALQKAIGVTSLSYDEDDDDDDENDAFYSSSHRVSHNYNQPPLPPIPTRDDMSNYSSSRNTPLVRRDRPSRLDSSSPNSHPHPSGLNSPKLPPLPTTSNSNFNSRKNSMSPTRKRPPPRLS,soluble
13,MSEFWLISAPGDKENLQALERMNNVTSKSNLSHNTKFAIPDFKVGTLDSLVGLSDELGKLDTFAESLIKRMAQSVVEVMEDSKGKAHETLLANGVDLTSFVTHFEWDMAKYPAKQPLVSVVDTLAKQLAQIETDLKSRTAAYSVLKANLENLEKRSTGNLFTRTLSDIVSKEDFVLDSEYLITLLVIVPKSSFAQWQKTYESLSDMVVPRSTKLIAEDNEGGLFTVTLFRKVIEDFKVKAKENKFIVREFYYDEKEIKREREEMTRLLSDKKQQYPTSCVALKKGSATYRDHKVKVAPLGNPARPAAGQTDRDRESEGEGEGPLLRWLKVNFSEAFIAWIHIKALRVFVESVLRYGLPVNFQAVLLQPHKKSATKRLREVLNSVFRHLDEVAAASILDASVEIPGLQLSNQDYFPYVYFHIDLSLLD,soluble
14,MSEIAMHVTAKPSSFQCNLKCDYCFYLEKESQFTHEKWMDDSTLKEFIKQYIAASGNQVYFTWQGGEPTLAGLDFFRKVIHYQQRYAGQKRIFNALQTNGILLNNEWCAFLKEHEFLVGISIDGPQELHDRYRRSNSGNGTFAKVIAAIERLKSYQVEFNTLTVINNVNVHYPLEVYHFLKSIGSKHMQFIELLETGTPNIDFSGHSENTFRIIDFSVPPTAYGKFMSTIFMQWVKNDVGEIFIRQFESFVSRFLGNGHTSCIFQESCKDNLVVESNGDIYECDHFVYPQYKLGNINKSELKTMNSVQLTAQKKRISAKCQQCAYKPICNGGCPKHRITKVNDETVSYFCEGYKILFSTMVPYMNAMVELAKNRVPLYHIMDVAKQMENN,not soluble
15,MSEIIVYTQNDCPPCTFVKNYLNEHQIDFEERNINNQQYRNEMIDFDAFSTPFILLNGNPMYHVDLDEINKVLNIQD,not soluble
16,MSEIKLNYHKTHFLTSAPNIRSIPEDTGIEIAFAGRSNAGKSTALNALTNQKNLARTSKTPGRTQLINLFEVEPNCKLVDLPGYGYAAVPEQMKIQWQKSLGEYLQKRECLAGLVVLMDIRHPLKDLDQQMIEWAVSANLPVLLLLTKADKLSQSARSKQVKMVREAILPFQGDIQVEAFSAQNKIGIDKLAVKLDFWFSPLFAE,not soluble
17,MSEKEIWEKVLEIAQEKLSAVSYSTFLKDTELYTIKDGEAIVLSSIPFNANWLNQQYAEIIQAILFDVVGYEVKPHFITTEELANYSNNETATPKETTKPSTETTEDNHVLGREQFNAHNTFDTFVIGPGNRFPHAASLAVAEAPAKAYNPLFIYGGVGLGKTHLMHAIGHHVLDNNPDAKVIYTSSEKFTNEFIKSIRDNEGEAFRERYRNIDVLLIDDIQFIQNKVQTQEEFFYTFNELHQNNKQIVISSDRPPKEIAQLEDRLRSRFEWGLIVDITPPDYETRMAILQKKIEEEKLDIPPEALNYIANQIQSNIRELEGALTRLLAYSQLLGKPITTELTAEALKDIIQAPKSKKITIQDIQKIVGQYYNVRIEDFSAKKRTKSIAYPRQIAMYLSRELTDFSLPKIGEEFGGRDHTTVIHAHEKISKDLKEDPIFKQEVENLEKEIRNVLEHHHHHH,soluble
18,MSEKGFSGGCQCGAVRFHAGKLGRPSICHCRMCQKHFGNFFGALVTADQAHLAWTRGQPTLFRSSARIHRGFCNKCGTPLTYHYPGGVEIAIGAFDHPEQIEPQAQVNIHKRMPWIEQLFSKPAIEQSVDEAEITSYQHPDHDTATWPPEGP,not soluble
19,MSEKLQKVLARAGHGSRREIESIIEAGRVSVDGKIAKLGDRVEVTPGLKIRIDGHLISVRESAEQICRVLAYYKPEGELCTRNDPEGRPTVFDRLPKLRGARWIAVGRLDVNTCGLLLFTTDGELANRLMHPSREVEREYAVRVFGQVDDAKLRDLSRGVQLEDGPAAFKTIKFSGGEGINQWYNVTLTEGRNREVRRLWEAVGVQVSRLIRVRYGDIPLPKGLPRGGWTELDLAQTNYLRELVELPPETSSKVAVEKDRRRMKANQIRRAVKRHSQVSGGRRSGGRNNNGLEHHHHHH,not soluble
20,MSEKTMRVQDYPLATRCPEHILTPTGKPLTDITLEKVLSGEVGPQDVRISRQTLEYQAQIAEQMQRHAVARNFRRAAELIAIPDERILAIYNALRPFRSSQAELLAIADELEHTWHATVNAAFVRESAEVYQQRHKLRKGS,soluble
21,MSELMQAILDSEEKHDLRGFISELRQQDKNYLLRNDILNVYAEYCSKCQKPETSYKFSNLSKLIYYTQEIIQEDSNFCFIIRPKIAAQEVYRLTADLDVEPMTVQELLDLRDRLVNKFHPYEGDILELDFGPFYDYTPTIRDPKNIGKGVQYLNRYLSSKLFQDSQQWLESLFNFLRLHNYNGIQLLINHQIQSQQQLSQQVKNALNFVSDRPNDEPYEQFRLQLQTMGFEPGWGNTASRVRDTLNILDELIDSPDPQTLEAFISRIPMIFRIVLVSAHGWFGQEGVLGRPDTGGQVVYVLDQAKNLEKQLQEDAILAGLEVLNVQPKVIILTRLIPNSDGTLCNQRLEKVYGTENAWILRVPLREFNPKMTQNWISRFEFWPYLETFAIDSERELLAEFQGRPDLIVGNYTDGNLVAFLLTRRMKVTQCNIAHALEKSKYLFSNLYWQDLEEKYHFSLQFTADLIAMNAANFVISSTYQEIVGTPDSIGQYESYKCFTMPELYHVVNGIELFSPKFNVVPPGVNENSYFPYTQTQNRIESDRDRLEEMLFTLEHHHHHH,not soluble
